In publication PMC9482650, “Quantitative fragmentomics allow affinity mapping of interactomes” (Nature Communications, 2022):

Assays:
Test in all cases: holdup assay
Set-up in all cases: key: below the threshold = too weak to quantify, mostly under pKd 3.1 to 4
[1] = target: T1, DLG3_3, Q92796
T1 sequence (Q92796 374-475, limits assumed, looked up): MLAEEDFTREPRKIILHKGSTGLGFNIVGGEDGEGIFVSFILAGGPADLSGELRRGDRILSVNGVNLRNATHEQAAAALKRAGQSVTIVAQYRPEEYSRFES

[2] = target: GRIP2_5, Q9C0E4
[3] = target: T2, DFNB31_1, Q9P202
T2 sequence (Q9P202 135-233, limits assumed, looked up): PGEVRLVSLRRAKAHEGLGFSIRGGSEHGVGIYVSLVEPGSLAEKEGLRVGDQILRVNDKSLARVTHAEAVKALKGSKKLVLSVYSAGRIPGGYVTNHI

[4] = target: FRMPD2_3, Q68DX3
[5] = target: T3, SYNJ2BP, P57105
T3 sequence (P57105 8-110, limits assumed, looked up): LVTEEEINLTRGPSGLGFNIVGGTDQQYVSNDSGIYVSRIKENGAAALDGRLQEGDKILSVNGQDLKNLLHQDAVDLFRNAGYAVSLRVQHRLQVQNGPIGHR

[6] = target: GRIP2_6, Q9C0E4
[7] = target: TJP1_3, Q07157
[8] = target: T4, LRRC7, Q96NW7
T4 sequence (Q96NW7 1440-1537, limits assumed, looked up): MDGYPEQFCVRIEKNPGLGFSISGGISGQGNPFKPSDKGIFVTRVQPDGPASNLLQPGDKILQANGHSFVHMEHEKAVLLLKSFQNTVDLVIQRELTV

[9] = target: T5, RHPN1, Q8TCX5
T5 sequence (Q8TCX5 508-602, limits assumed, looked up): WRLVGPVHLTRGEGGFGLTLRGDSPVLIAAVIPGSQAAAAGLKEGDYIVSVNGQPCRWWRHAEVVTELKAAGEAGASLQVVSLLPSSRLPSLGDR

[10] = target: T6, MPDZ_5, O75970
T6 sequence (O75970 695-796, limits assumed, looked up): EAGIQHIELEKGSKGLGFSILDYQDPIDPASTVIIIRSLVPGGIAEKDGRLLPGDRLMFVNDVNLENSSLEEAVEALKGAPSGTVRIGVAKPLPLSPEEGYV

[11] = target: T7, DLG3_2, Q92796
T7 sequence (Q92796 221-321, limits assumed, looked up): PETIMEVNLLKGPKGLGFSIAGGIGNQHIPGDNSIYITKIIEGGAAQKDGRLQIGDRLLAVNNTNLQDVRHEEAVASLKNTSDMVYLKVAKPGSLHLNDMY

[12] = target: T8, SIPA1L2, Q9P2F8
T8 sequence (Q9P2F8 945-1036, limits assumed, looked up): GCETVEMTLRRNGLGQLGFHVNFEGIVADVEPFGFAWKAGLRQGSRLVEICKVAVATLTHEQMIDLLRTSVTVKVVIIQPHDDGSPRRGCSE

[13] = target: SNX27, Q96L92
[14] = target: T9, CARD11, Q9BXL7
T9 sequence (Q9BXL7 662-765, limits assumed, looked up): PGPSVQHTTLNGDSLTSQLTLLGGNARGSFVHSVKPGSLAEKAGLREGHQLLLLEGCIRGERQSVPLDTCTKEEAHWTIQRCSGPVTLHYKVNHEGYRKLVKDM

[15] = target: HTRA1, Q92743
[16] = target: T10, GRIP1_3, Q9Y3R0
T10 sequence (Q9Y3R0 247-346, limits assumed, looked up): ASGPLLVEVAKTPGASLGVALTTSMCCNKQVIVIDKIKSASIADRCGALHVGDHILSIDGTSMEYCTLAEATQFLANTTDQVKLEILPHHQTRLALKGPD

[17] = target: NHERF4_2, Q86UT5
[18] = target: T11, RADIL, Q96JH8
T11 sequence (Q96JH8 971-1071, limits assumed, looked up): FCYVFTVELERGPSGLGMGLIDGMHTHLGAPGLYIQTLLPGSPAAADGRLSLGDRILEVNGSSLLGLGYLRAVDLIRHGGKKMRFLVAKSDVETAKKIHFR

[19] = target: ARHGEF12, Q9NZN5-2
[20] = target: T12, ARHGEF11, O15085
T12 sequence (O15085 42-136, limits assumed, looked up): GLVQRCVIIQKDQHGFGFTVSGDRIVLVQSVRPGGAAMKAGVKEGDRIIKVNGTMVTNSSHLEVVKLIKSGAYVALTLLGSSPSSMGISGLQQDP

[21] = target: T13, MPP7, Q5T2T1
T13 sequence (Q5T2T1 134-230, limits assumed, looked up): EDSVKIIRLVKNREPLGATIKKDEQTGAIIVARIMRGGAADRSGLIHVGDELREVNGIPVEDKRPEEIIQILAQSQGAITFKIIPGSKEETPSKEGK

[22] = target: Inadl_6, Q8NI35
[23] = target: Inadl_1, Q8NI35
[24] = target: MAGI2_2, Q86UL8
[25] = plain residues with an end cap or a label only (N-terminal biotin on a linker: (peg)3)
[26] = plain residues with an end cap or a label only (N-terminal biotin on a linker: ado-ado)

Sequence of NHERF4_2, Q86UT5 (Q86UT5 220-308): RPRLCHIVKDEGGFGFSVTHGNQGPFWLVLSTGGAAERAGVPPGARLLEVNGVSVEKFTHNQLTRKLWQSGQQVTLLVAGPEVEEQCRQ
Sequence of FRMPD2_3, Q68DX3 (Q68DX3 1073-1166): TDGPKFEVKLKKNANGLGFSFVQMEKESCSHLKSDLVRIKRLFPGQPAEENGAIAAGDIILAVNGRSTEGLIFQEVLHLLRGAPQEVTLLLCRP
Sequence of Inadl_6, Q8NI35 (Q8NI35 1058-1167): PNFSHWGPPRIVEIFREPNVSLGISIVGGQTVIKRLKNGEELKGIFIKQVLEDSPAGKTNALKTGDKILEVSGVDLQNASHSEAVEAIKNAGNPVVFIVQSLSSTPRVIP
Sequence of ARHGEF12, Q9NZN5-2 (Q9NZN5 other isoform, or with tags, fused parts or gaps): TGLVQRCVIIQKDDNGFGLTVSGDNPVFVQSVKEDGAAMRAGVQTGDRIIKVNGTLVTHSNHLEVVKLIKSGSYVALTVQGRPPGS
Sequence of Inadl_1, Q8NI35 (Q8NI35 113-229): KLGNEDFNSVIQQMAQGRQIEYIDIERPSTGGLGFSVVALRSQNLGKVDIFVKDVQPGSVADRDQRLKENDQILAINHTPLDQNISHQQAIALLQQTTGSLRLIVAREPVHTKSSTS
Sequence of HTRA1, Q92743 (Q92743 360-477): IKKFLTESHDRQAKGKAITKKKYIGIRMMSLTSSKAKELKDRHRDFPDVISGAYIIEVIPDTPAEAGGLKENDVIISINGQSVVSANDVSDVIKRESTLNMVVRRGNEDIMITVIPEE
Sequence of GRIP2_6, Q9C0E4 (Q9C0E4 648-740): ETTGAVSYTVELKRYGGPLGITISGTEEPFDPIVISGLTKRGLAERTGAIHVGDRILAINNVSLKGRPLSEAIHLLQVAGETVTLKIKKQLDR
Sequence of TJP1_3, Q07157 (Q07157 416-512): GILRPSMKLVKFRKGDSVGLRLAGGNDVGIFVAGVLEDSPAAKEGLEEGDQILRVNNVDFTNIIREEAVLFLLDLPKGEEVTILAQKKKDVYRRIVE
Sequence of MAGI2_2, Q86UL8 (Q86UL8 410-522): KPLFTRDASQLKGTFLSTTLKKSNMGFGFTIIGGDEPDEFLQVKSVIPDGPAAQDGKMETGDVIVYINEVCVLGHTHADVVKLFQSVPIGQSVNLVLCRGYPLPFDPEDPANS
Sequence of GRIP2_5, Q9C0E4 (Q9C0E4 544-642): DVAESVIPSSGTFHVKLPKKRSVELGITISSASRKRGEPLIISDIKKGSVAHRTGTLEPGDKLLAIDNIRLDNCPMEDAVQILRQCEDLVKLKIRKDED

With QQSMSSADSTQA [SARS-Cov2-N, P0DTC9] the pKd [1, 25] was “below the threshold”, the pKd [2, 25] was “below the threshold” and the pKd [3, 25] was “below the threshold”. The pKd [4, 25] was “below the threshold”, the pKd [5, 25] was “below the threshold” and the pKd [6, 25] was “below the threshold”. For the same binder, the pKd [7, 25] was “below the threshold”, the pKd [8, 25] was “below the threshold” and the pKd [9, 25] was “below the threshold”. For the same binder, the pKd [10, 25] was “below the threshold”, the pKd [11, 25] was “below the threshold” and the pKd [12, 25] was “below the threshold”. For the same binder, the pKd [13, 25] was “below the threshold”, the pKd [14, 25] was “below the threshold” and the pKd [15, 25] was “below the threshold”. For the same binder, the pKd [16, 25] was “below the threshold”, the pKd [17, 25] was “below the threshold” and the pKd [18, 25] was “below the threshold”. The pKd [19, 25] was “below the threshold”, the pKd [20, 25] was “below the threshold” and the pKd [21, 25] was “below the threshold”. The pKd [22, 25] was “below the threshold”, the pKd [23, 25] was “below the threshold” and the pKd [24, 25] was “below the threshold”.

ELSATVTTDC [TRIP6, Q15654] was tested, and the pKd [1, 26] was “below the threshold”, the pKd [2, 26] was “below the threshold” and the pKd [3, 26] was 3.81. The pKd [4, 26] was “below the threshold”, the pKd [5, 26] was 4.68 and the pKd [6, 26] was “below the threshold”. For the same binder, the pKd [7, 26] was “below the threshold”, the pKd [8, 26] was “below the threshold” and the pKd [9, 26] was 4.32. The pKd [10, 26] was “below the threshold”, the pKd [11, 26] was 4.23 and the pKd [12, 26] was “below the threshold”. For the same binder, the pKd [13, 26] was 4.57, the pKd [14, 26] was “below the threshold” and the pKd [15, 26] was 3.56. The pKd [16, 26] was “below the threshold”, the pKd [17, 26] was “below the threshold” and the pKd [18, 26] was 3.52. The pKd [19, 26] was 4.44, the pKd [20, 26] was 4.61 and the pKd [21, 26] was 3.65. The pKd [22, 26] was “below the threshold”, the pKd [23, 26] was “below the threshold” and the pKd [24, 26] was “below the threshold”.

For ARESQKVSHV [FAM110B, Q8TC76], the pKd [1, 26] was “below the threshold”, the pKd [2, 26] was “below the threshold” and the pKd [3, 26] was 3.62. For the same binder, the pKd [4, 26] was “below the threshold”, the pKd [5, 26] was 4.31 and the pKd [6, 26] was “below the threshold”. For the same binder, the pKd [7, 26] was “below the threshold”, the pKd [8, 26] was “below the threshold” and the pKd [9, 26] was 4.72. For the same binder, the pKd [10, 26] was “below the threshold”, the pKd [11, 26] was 4.22 and the pKd [12, 26] was “below the threshold”. The pKd [13, 26] was 4.42, the pKd [14, 26] was “below the threshold” and the pKd [15, 26] was 4.32. The pKd [16, 26] was “below the threshold”, the pKd [17, 26] was “below the threshold” and the pKd [18, 26] was 4.55. The pKd [19, 26] was 4.58, the pKd [20, 26] was 4.19 and the pKd [21, 26] was “below the threshold”. The pKd [22, 26] was 4.05, the pKd [23, 26] was “below the threshold” and the pKd [24, 26] was 4.87.
